Experimental data as given in patent US20060166920A1, “Oligonucleotide based therapeutics” (Regents of the University of Michigan, priority 2004, published 2006).

Legend:
human Bcl-xL [1] = test: Western blot of PC-3 cells transfected with Bcl-xL siRNA cassettes; assay type: cell-based; conditions: inferred from transfection efficiency of 40% to 50%
Description: (§1) Human prostate cancer PC-3 cells and human breast cancer MCF-7 cells were transfected with the designed Bcl-xL dsRNA (siRNA) cassettes, using a transferrin-liposome system (LipofectaminePlus, Invitrogen). Briefly, 5×10^5 cells were plated per well in 6-well plates. After overnight culture, the cells were 60% to 70% confluent. The transfection was performed according to the manufacturer's instruction, with 0.4 μg siRNA cassette DNA per well. The cells were cultured for 48 hr, then harvested and cell lysates were made for Western blot analysis. 15 μg of protein were added to each lane for SDS-PAGE. […] Similar results were also observed in MCF-7 cells (See, e.g., FIG. 2). […] Therefore, with efficient delivery to the cells, the Bcl-xL siRNA effectively induces cell death.

Bcl-xS [2] = test: as above; assay type: cell-based, human; conditions: 0.4 μg siRNA cassette DNA per well, 48 hr
Description: as §1

[3] = tested on: human breast cancer MCF-7 cells; test: Cell death of MCF-7 cells after transfection; assay type: cell-based; conditions: MCF-7 cells 48 hr after transfection of siRNA cassette
Description: as §1
MCF-7 and PC-3 cells were transfected with psiBcl-xL (transfection conditions were performed as described above). In some experiments, FuGene 6 (Roche) was used due to low toxicity and high efficiency for plasmid transfection. Briefly, 60% confluent cells were transfected with 1-3 μg psiBcl-xL or psiLuc DNA per well in a 6-well plate (DNA:FuGene 6 ratio=1 μg:3 μl). […] The transfection efficiency of FuGene 6 (as detected by green fluorescence protein (GFP) expression; psiBcl-xL posseses the green fluorescence protein (GFP) gene, See, e.g., FIG. 4) for MCF-7 cells was about 40% -50%. […]

human Bcl-xL [4] = test: Western blot of MCF-7 cells transfected with Bcl-xL siRNA cassettes; assay type: cell-based
Description: as §1

Bcl-xS [5] = test: as above; assay type: cell-based, human; conditions: 0.4 μg siRNA cassette DNA per well, 48 hr
Description: as §1

Molecule	Bcl-xL gene knockdown in the cells transfected (human Bcl-xL [1]) [%]	effect on Bcl-xS expression (Bcl-xS [2])	cell death [3]	down-regulation of Bcl-xL (human Bcl-xL [4]; 0.4 μg siRNA cassette DNA per well, LipofectaminePlus, 48 hr) [%]	Bcl-xL down-regulation in the transfected cells (human Bcl-xL [4]; inferred from transfection efficiency of 40%-50%) [%]	effect on Bcl-xS expression (Bcl-xS [5])
siRNA #3: Bcl-xL small hairpin siRNA cassette, SEQ ID NO: 5, 76 bp (nucleic acid, listed as Homo sapiens, expressed or natural sequence; the letters are possibly those of the target site) DNA: GGATCCCGCGATCCGACTCACCAATACCTTTGATATCCGAGGTATTGGTGAGTCGGATCGTTTTTTCCAAAAGCTT	~100	without significantly affecting Bcl-xS expression	somewhat less cell death			
siRNA #2: Bcl-xL small hairpin siRNA cassette, SEQ ID NO: 4, 76 bp (nucleic acid, listed as Homo sapiens, expressed or natural sequence; the letters are possibly those of the target site) DNA: GGATCCCGCTTGTCTACGCTTTCCACGCATTGATATCCGTGCGTGGAAAGCGTAGACAAGTTTTTTCCAAAAGCTT	~100	without significantly affecting Bcl-xS expression	up to 50%	> 50	~100	without significantly affecting Bcl-xS expression
